The results in this text go back to patent US20210148907A1 (NATIONAL GUARD HEALTH AFFAIRS, published 2021).

The target in experiment [1] is Death-associated protein 3 (DAP3) (human, UniProt P51398 22-398). In words: co-immunoprecipitation with affi-gel-bound anti-Flag antibody from transfected HeLa cells; Western blot with anti-DAP3. How it is done:
Briefly, equal numbers of HeLa cells were transfected with a control vector or Flag-epitope tagged N-terminus domain of BCL10 (aa. 1-97), C-terminus domain (aa. 104-233) or the full length BCL10. After 48 h of incubation, equal extracts (200 μg) from the transfected cells were incubated with a 50 μL of affi-gel-bound anti-Flag antibody. […] The expression of the Flag-BCL10 protein variants in the extracts (IB) was also assessed. β-actin was used as a loading control to ensure equal protein loading.

For experiment [2], the target named is T1, human serum albumin (AffiGel 10-bound, HSA Column) (human, UniProt P02768 25-609).
T1 construct: also called HSA control column
The experiment in a line: Western blot of the eluate of the HSA control column with specific primary antibodies.

Experiment [3] has as its target T1, human serum albumin (AffiGel 10-bound, …). The experiment in a line: AffiGel-HSA control column loaded with the HeLa S100 >800 kDa fraction; tandem mass spectrometry of the eluate.

B1: Flag-epitope tagged N-terminus domain of BCL10 (aa. 1-97) (other, not shown: small tags and cut ends)
chain: MEPTAPSLTEEDLTEVKKDALENLRVYLCEKIIAERHFDHLRAKKILSREDTEEISCRTSSRKRAGKLLDYLQENPKGLDTLVESIRREKTQNFLIQ
notes: Expressed in transfected HeLa cells; also called amino terminal CARD domain (aa 1-97); CARD (N-terminus) domain of BCL10
As for B1, the binding result in experiment [1] was “no binding”.

B2: Insulin-like growth factor II (IGF-II) messenger RNA (mRNA)-binding protein-3 (IMP3) (other, UniProt O00425 1-579, looked up)
chain: MNKLYIGNLSENAAPSDLESIFKDAKIPVSGPFLVKTGYAFVDCPDESWALKAIEALSGKIELHGKPIEVEHSVPKRQRIRKLQIRNIPPHLQWEVLDSLLVQYGVVESCEQVNTDSETAVVNVTYSSKDQARQALDKLNGFQLENFTLKVAYIPDEMAAQQNPLQQPRGRRGLGQRGSSRQGSPGSVSKQKPCDLPLRLLVPTQFVGAIIGKEGATIRNITKQTQSKIDVHRKENAGAAEKSITILSTPEGTSAACKSILEIMHKEAQDIKFTEEIPLKILAHNNFVGRLIGKEGRNLKKIEQDTDTKITISPLQELTLYNPERTITVKGNVETCAKAEEEIMKKIRESYENDIASMNLQAHLIPGLNLNALGLFPPTSGMPPPTSGPPSAMTPPYPQFEQSETETVHLFIPALSVGAIIGKQGQHIKQLSRFAGASIKIAPAEAPDAKVRMVIITGPPEAQFKAQGRIYGKIKEENFVSPKEEVKLEAHIRVPSFAAGRVIGKGGKTVNELQNLSSAEVVVPRDQTPDENDQVVVKITGHFYACQVAQRKIQEILTQVKQHQQQKALQSGPPQSRRK
notes: Endogenous protein of HeLa cells; It describes the protein as IGF2BP3 with a mass of 63705 Da and also lists NP_006538; also called IMAP3; IGF2BP3
For the molecule B2, the binding result in experiment [2] is “no binding”.

B3: Phosphatase of Regenerative Liver (PRL1/protein tyrosine phosphatase PTP4A1) (enzyme)
chain: MARMNRPAPVEVTYKNMRFLITHNPTNATLNKFIEELKKYGVTTIVRVCEATYDTTLVEKEGIHVLDWPFDDGAPPSNQIVDDWLSLVKIKFREEPGCCIAVHCVAGLGRAPVLVALALIEGGMKYEDAVQFIRQKRRGAFNSKQLLYLEKYRPKMRLRFKDSNGHRNNC
notes: Endogenous protein of HeLa cells; also called PRL1/PTP4A1
For B3, in experiment [3], the binding result is “no binding”.
